Experimental data published in US11583588B2, “Modular self assembly disassembly (SADA) technologies” (MEMORIAL SLOAN KETTERING CANCER CENTER, priority 2017, dated 2023).

Assays:
Human NK cells = assay: NK cell cytotoxicity improvement from SADA-Cytokine stimulation; type: cell-based; conditions: 1 nM for three days; cytotoxicity over a 4 hr period
Description: (§1) […] to FIG. 11D depict in vitro activity of P53-Cytokine, P63-Cytokine and P73-Cytokine SADA-Cytokines. FIG. 11A depicts a graph showing SADA-Cytokine dependent proliferation. The dose dependent proliferative response of TIB214 cells to each of P53-Cytokine (circles), P63-Cytokine (squares) and P73-Cytokine (triangles) is shown. FIG. 11B depicts a graph showing NK Cell cytotoxicity improvement from SADA-Cytokine stimulation. Bar graph summarizes peak cytotoxicity improvement from exposure of human NK cells to each SADA-Cytokine for 3 days. Cytotoxicity was assessed over a 4 hr period using a GD2(+) cell line that is sensitive to NK mediated killing and an anti-GD2 IgG (Ahmed, M. et al. (2015) OncoImmunology). Control (black bar), P53-Cytokine (medium gray bar), P63-Cytokine (dark gray bar) and P73-Cytokine (light gray bar). FIG. 11C depicts a graph showing T Cell cytotoxicity improvement from SADA-Cytokine stimulation. Bar graph summarizes peak cytotoxicity improvement from exposure of human T cells to each SADA-Cytokine for 3 days. Cytotoxicity was assessed over a 4 hr period using a GD2(+) cell line and a T-cell engaging anti-GD2 IgG-scFv bispecific (Xu, H. et al. (2015) Cancer immunology research). Control (black bar), P53-Cytokine (medium gray bar), P63-Cytokine (dark gray bar) and P73-Cytokine (light gray bar). FIG. 11D depicts a graph showing tumor growth in DKO mice with GD2(+) tumors implanted subcutaneously. Each mouse was treated with PBMCs (gray triangles) and a low dose of an anti-tumor IgG-scFv (Xu, H. et al. (2015) Cancer immunology research) and additional cytokines. Untreated tumors grew out very quickly (black lines). Tumors treated with the IgG-scFv and an Fc-Cytokine (Liu et al. 2016 JBC, http://www.jbc.org/content/291/46/23869) with a mutation to improve binding (light gray line) shrunk tumors slower than mice treated with the IgG-scFv and SADA-Cytokine (dark gray line).
(§2) This example documents the in vitro activity of exemplary SADA-cytokine multimers. […] Additionally, each complex could prime effector immune cells to kill more strongly. […]

human T cells = assay: T cell cytotoxicity improvement from SADA-Cytokine stimulation; type: cell-based; conditions: incubated three days; cytotoxicity over a 4 hr period, GD2(+) cell line
Description: as §1, §2

[1] = system: TIB214, an IL15 sensitive cell line; assay: SADA-Cytokine dependent proliferation; type: cell-based
Description: as §1, §2

[2] = Blood and tumor activity after P53-BiDE(noHIS) and 177Lu-Bn-DOTA administration (FIG. 6A, 6D, 6E); type: in vivo, mice; conditions: mouse, in vivo
Method: FIG. 6A to FIG. 6E depict pharmacokinetics of exemplary SADA-BiDE constructs in vivo. FIG. 6A depicts activity over time after P53-BiDE(noHIS) and Bn-DOTA administration. Each line represents one group, with three mice per group. Triangles denote a group that received P53-BiDE(noHIS) followed by clearing agent (CA) 72 hours later. Squares denote a group that received P53-BiDE(noHIS) without any clearing agent before ^177Lu-Bn-DOTA administration. Circles denote a group that only received ^177Lu-Bn-DOTA but not any SADA-BiDE. Dashed lines correspond to the measured blood activity, while solid lines correspond to the activity measured in the tumor. […] FIG. 6B depicts blood activity of radiolabeled 131I-SADA-BiDE in tumor-free mice. Activity measurements were normalized to the initial measurement for each group. Each line represents one group, with 4-5 mice per group. (+) symbols denote P53-BiDE, (X) symbols denote P63-BiDE and circles denote P73-BiDE. FIG. 6C depicts blood activity in tumor bearing mice treated with either IgG-BiDE (Cheal, S. M. et al. (2014) Mol Cancer Ther) or SADA-BiDE and then injected with ^177Lu-Bn-DOTA. Each line represents one group, with 3-5 mice per group. Circles denote a group that received IgG-BiDE (Cheal, S. M. et al. (2014) Mol Cancer Ther) followed by clearing agent 48 hrs later. Squares denote a group that received P53-BiDE. Diamonds denote a group that received P63-BiDE. Hexagons denote a group that received P73-BiDE. No SADA-BiDE treated mice received any clearing agent. A representative anti-tumor IgG and ^177Lu-Bn-DOTA alone clearance curves were added as a reference. (+) symbols with a dotted line denote the ^124I-labeled anti-GD2 IgG, and (x) symbols with a dotted line denote ^177Lu-Bn-DOTA alone. […]
Importantly, even though, as described in the previous examples, P53-BIDE(NOHIS), P53-BiDE, P63-BiDE and P73-BiDE is rapidly cleared from the serum, total tumor uptake of was not affected. With both 24 hours and 72 hours between P53-BIDE(NOHIS) and ^177Lu-Bn-DOTA injections, significant activity (˜15% ID/g) was measured at the tumor site (FIG. 6D) […]

tumors = type: in vivo, mice
Method: FIG. 8A and FIG. 8B depict tumor responses after treatment with a SADA-BiDE construct P53-BIDE(NOHIS) in vivo. FIG. 8A depicts a graph showing the change in tumor volume after administration of 1 (circles) or 4 (squares) doses of P53-BiDE. As a reference other mice were also treated with IgG-BiDE (Cheal, S. M. et al. (2014) Mol Cancer Ther) and clearing agent (triangles). FIG. 8B provides images of an exemplary mouse treated with a single dose of P53-BIDE(NOHIS) from the experimental data shown in FIG. 8A. Images are shown of the mouse on days 1, 8 and 15 with a box around the site of the tumor.
In mice with significant tumor burden (>500 mm^3 tumor volumes) a single 250 μg (1.25 nmol) dose of P53-BIDE(NOHIS) was administered followed 24 hour later by administration of 2mCi of ^177Lu-Bn-DOTA.

Molecule	NK cell cytotoxic response against a GD2(+) neuroblastoma cell line (Human NK cells)	IgG-scFv dependent killing of tumor cells by T cells (human T cells)	proliferation of TIB214 relative to untreated control cells [1]	activity measured at the tumor site [2] [% ID/g]	clearance from blood without clearing agent [2]	retention at the target site [2]	clinical or histologic toxicity (tumors; mouse, in vivo)	tumor response (tumors; tumor volumes >500 mm^3, single 250 μg (1.25 nmol) dose, 2mCi 177Lu-Bn-DOTA 24 hour later, no CA)
P73-Cytokine: IL15Rα, huP73-tet, IgG3 spacer; associates non-covalently with soluble IL15; SEQ ID NO: 61 (protein) ITCPPPMSVEHADIWVKSYSLYSRERYICNSGFKRKAGTSSLTECVLNKATNVAHWTTPSLKCIRTPLGDTTHTSGRHGDEDTYYLQVRGRENFEILMKLKESLELMELVPQPLVDSYRQQQQLLQRPGGSGGAPHHHHHH	increased antibody-independent cytotoxic response	strongly increased IgG-scFv dependent killing	robust proliferation	–	–	–	–	–
P53-BiDE(noHIS): hu3F8-scFv, huC825-scFv, huP53-tet, GS linker, IgG3 spacer, lacks terminal HIS tag; SEQ ID NO: 17 (protein) EIVMTQTPATLSVSAGERVTITCKASQSVSNDVTWYQQKPGQAPRLLIYSASNRYSGVPARFSGSGYGTEFTFTISSVQSEDFAVYFCQQDYSSFGCGTKLEIKRGGGGSGGGGSGGGGSQVQLVESGPGVVQPGRSLRISCAVSGFSVTNYGVHWVRQPPGKCLEWLGVIWAGGITNYNSAFMSRLTISKDNSKNTVYLQMNSLRAEDTAMYYCASRGGHYGYALDYWGQGTLVTVSSGGGGSGGGGSGGGGSGGGGSHVQLVESGGGLVQPGGSLRLSCAASGFSLTDYGVHWVRQAPGKGLEWLGVIWSGGGTAYNTALISRFTISRDNSKNTLYLQMNSLRAEDTAVYYCARRGSYPYNYFDAWGCGTLVTVSSGGGGSGGGGSGGGGSQAVVTQEPSLTVSPGGTVTLTCGSSTGAVTASNYANWVQQKPGQCPRGLIGGHNNRPPGVPARFSGSLLGGKAALTLLGAQPEDEAEYYCALWYSDHWVIGGGTKLTVLGTPLGDTTHTSGKPLDGEYFTLQIRGRERFEMFRELNEALELKDAQAGKEPGGSGGA	–	–	–	~15	almost completely cleared	stably retained at the target site	did not induce any clinical or histologic toxicity	completely ablate tumors in all four mice treated
P63-Cytokine: IL15Rα, huP63-tet, IgG3 spacer; associates non-covalently with soluble IL15; SEQ ID NO: 59 (protein) ITCPPPMSVEHADIWVKSYSLYSRERYICNSGFKRKAGTSSLTECVLNKATNVAHWTTPSLKCIRTPLGDTTHTSGRSPDDELLYLPVRGRETYEMLLKIKESLELMQYLPQHTIETYRQQQQQQHQHLLQKQGGSGGAPHHHHHH	increased antibody-independent cytotoxic response	strongly increased IgG-scFv dependent killing	robust proliferation	–	–	–	–	–
P53-Cytokine: IL15Rα, huP53-tet, IgG3 spacer; associates non-covalently with soluble IL15; SEQ ID NO: 57 (protein) ITCPPPMSVEHADIWVKSYSLYSRERYICNSGFKRKAGTSSLTECVLNKATNVAHWTTPSLKCIRTPLGDTTHTSGKPLDGEYFTLQIRGRERFEMFRELNEALELKDAQAGKEPGGSGGAPHHHHHH	increased antibody-independent cytotoxic response	strongly increased IgG-scFv dependent killing	robust proliferation	–	–	–	–	–
